According to patent publication US10273305B2, “Bispecific CXCR4-CD4 polypeptides with potent anti-HIV activity” (Ablynx N.V., priority 2015, dated 2019):

B1: 3F11: anti-CD4 Nanobody, SEQ ID NO: 20 (protein)
VHH: EVQLVESGGGSVQPGGSLTLSCGTSGRTFNVMGWFRQAPGKEREFVAAVRWSSTGIYYTQYADSVKSRFTISRDNAKNTVYLEMNSLKPEDTAVYYCAADTYNSNPARWDGYDFRGQGTQVTVSS
modifications: Nanobody Sequence

Columns and labels:
[1] = system: dual-tropic R5/X4 HIV-2 ROD; assay: TZM-bl luciferase assay, HIV-2 ROD; assay type: cell-based
X4 HIV-1 NL4.3 WT = assay: TZM-bl luciferase assay, NL4.3 WT; assay type: cell-based
[2] = system: dual-tropic R5/X4 HIV-1 HE; assay: HIV-1 HE infection of PBMCs, p24; assay type: cell-based
[3] = system: dual-tropic R5/X4 HIV-1 HE; assay: TZM-bl luciferase assay, HE; assay type: cell-based
R5 DJ259 = assay: TZM-bl luciferase assay, DJ259; assay type: cell-based, HIV-1; details: read-out: IC50 TZM-bl R5 DJ259 n = 2
R5 SM145 = assay: TZM-bl luciferase assay, SM145; assay type: cell-based, HIV-1; details: read-out: IC50 TZM-bl R5 SM145 n = 2
R5 HIV-1 BaL virus = assay: TZM-bl luciferase assay, BaL; assay type: cell-based; details: read-out: IC50 R5 HIV-1 BaL virus in TZM-bl cells
CXCR4 [4] = biological target: T1, CXCR4 (Homo sapiens, UniProt P61073); assay: CXCL12-AF647 binding inhibition on SupT1 cells by flow cytometry; details: T-cells (SUPT-1)
CXCR4 [5] = biological target: T1, CXCR4; assay: Inhibition of SDF-1 induced Ca2+ signaling in U87.CD4.CXCR4 cells (FLIPR); assay type: cell-based
cynomolgus CD4 = cynomolgus CD4 (Macaca fascicularis, UniProt P79185); assay: Binding of 3F11 to cynomolgus CD4+ HSC-F T cells, flow cytometry; details: HSC-F T cell line
CD4 [6] = biological target: T2, CD4 (Homo sapiens, UniProt P01730); assay: Flow cytometry binding of purified CD4 Nanobodies to Jurkat and THP-1 cells; details: 100 nM Nanobody
Description: Murine Ba/F3 myeloid cells were used as negative control cells. Purified Nanobodies (100 nM) were allowed to bind to 10^5 cells for 30 minutes at 4° C. in a final volume of 100 μl of 10% FBS (Invitrogen, Cat 10270-106) in PBS (Invitrogen #14190). Bound Nanobodies were detected with mouse anti-myc antibody (Serotec, Cat#MCA2200) followed by goat anti-mouse-PE antibody (Jackson #115-115-164). Dead cells percentage population was determined by staining the cells with TOPRO3 (Molecular probes T3605). Using a BD FACS Array Bioanalyzer system, a PE filter 585/42 and a Topro filter 661/16, twenty thousand events were acquired. TOPRO3+ cells were excluded, and the mean channel fluorescence (MCF) was calculated. Expression of CD4 in Jurkat and THP-1 cells was confirmed by using 10 μg/ml of an anti-CD4 monoclonal antibody (Diaclone, clone B-A1 cat#854.030.000). Staining of the cells with anti-myc and/or the goat anti mouse-PE antibodies antibody was performed as negative controls.

CXCR4 [7] = biological target: T1, CXCR4; assay: Inhibition of SDF-1 mediated chemotaxis; assay type: cell-based; details: average of 3
Description: As chemoattractant a concentration of 750 pM SDF-1α (R&D Systems) was used on 100,000 cells/well for the Jurkat cell line, and 500,000 cells/well for the MOLM-13 cell line. SDF-1α and serially diluted Nanobody constructs were added to the bottom of a small chemotaxis plate (Neuprobe 106-5) in a total volume of 29 μl. A chemotaxis filter membrane (ChemoTx® Disposibla, pore size 5 μm) was placed on top of the wells, ensuring that the membrane was in contact with the solution in the wells below. A Nanobody dilution (10 μl at 5× the serially diluted final concentration as below the membrane in each well) was added on top of the membrane, followed by 40 μl of cell suspension. The plates were incubated for 3 hours at 37° C. in a humidified incubator (5% CO2). After incubation, the filters were carefully removed and the cells in the well below were resuspended in the existing solution. The complete cell suspension was transferred to the corresponding wells of white polystyrene Costar plates. After this, 30 μl of Cell Titer Glo reagent (Promega G7571) was added to each well, followed by a 10 minute incubation, with shaking in the dark. Luminescence was measured (1 sec/well) using an Envision 2103 Multilabel Reader with emission filter 700 (Perkin Elmer). […]

[8] = biological target: interaction of CD4 with the viral gp120 protein (Homo sapiens, UniProt P01730); assay: ELISA-based competition of CD4-gp120 interaction; assay type: binding; details: 500 nM Nanobody; gp120 HIV-1 IIIB
Description: Besides its role on T-cells, CD4 also serves as primary receptor for HIV entry. Therefore purified CD4 Nanobodies were analysed for the capacity to block the interaction of CD4 with the viral gp120 protein. Monovalent His-tagged Nanobodies were purified from periplasmic extracts by affinity and desalting chromatography and used in an ELISA-based competition setup. In short, 1 μg/ml of gp120 HIV-1 IIIB (Immunodiagnostic) was captured by 20 μg/ml of sheep anti-gp120 antibody D7324 (Aalto Bio Reagents) previously coated in 96 well Maxisorp microtiter plates (Nunc) and blocked with 1% casein in PBS. In parallel, 0.5 μg/ml of biotinylated CD4 was incubated with 500 nM of the different purified Nanobodies in 100 μl 0.1% Casein/PBS. After 1 hour, the biotinylated CD4-Nanobody pre-mixes were incubated 1 hour with the captured gp120. Bound biotinylated CD4 was detected using HRP-conjugated Extravidin (Sigma E2886). A blocking mouse anti-CD4 IgG2a antibody (Diaclone, clone B-A1 cat#854.030.000) was used as positive control. Blocking activity was determined as loss of O.D. signal, as compared to wells where no Nanobody was added.

CD4 [9] = biological target: T2, CD4; assay: FACS binding of CD4 Nanobody 3F11 to human cells; details: CD8+ T cells isolated from human PBMCs
Description: The EC50 values results are depicted in Table 2.4. […] To confirm the specificity of the anti-CD4 Nanobody, binding of 03F11 was also assessed to cytotoxic CD8^+ T cells isolated from human PBMCs using the CD8 T Cell Isolation Kit (Miltenyi Biotech, Cat. 130-096-495), resulting in 94% purity of CD8^+ cells.

HUT-78/HIV-1 NL4.3 = assay: HIV-1-mediated cell-cell fusion, HUT-78/NL4.3 with SupT1 cells; details: read-out: IC50 cell-cell fusion
HIV-1 X4 NL4.3 strain = assay: HIV-1 NL4.3 infection of PHA-stimulated PBMCs, p24 Ag ELISA; assay type: cell-based

T1 sequence (P61073 whole entry): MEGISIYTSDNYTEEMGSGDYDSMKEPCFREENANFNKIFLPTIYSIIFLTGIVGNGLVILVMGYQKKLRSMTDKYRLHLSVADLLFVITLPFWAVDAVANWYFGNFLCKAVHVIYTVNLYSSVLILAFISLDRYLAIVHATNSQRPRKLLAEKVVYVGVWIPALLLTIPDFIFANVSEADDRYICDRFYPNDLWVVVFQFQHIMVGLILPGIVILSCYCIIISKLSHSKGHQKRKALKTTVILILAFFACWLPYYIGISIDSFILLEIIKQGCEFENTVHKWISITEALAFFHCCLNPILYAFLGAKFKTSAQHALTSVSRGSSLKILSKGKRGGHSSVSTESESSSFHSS
cynomolgus CD4, sequence (P79185 26-458): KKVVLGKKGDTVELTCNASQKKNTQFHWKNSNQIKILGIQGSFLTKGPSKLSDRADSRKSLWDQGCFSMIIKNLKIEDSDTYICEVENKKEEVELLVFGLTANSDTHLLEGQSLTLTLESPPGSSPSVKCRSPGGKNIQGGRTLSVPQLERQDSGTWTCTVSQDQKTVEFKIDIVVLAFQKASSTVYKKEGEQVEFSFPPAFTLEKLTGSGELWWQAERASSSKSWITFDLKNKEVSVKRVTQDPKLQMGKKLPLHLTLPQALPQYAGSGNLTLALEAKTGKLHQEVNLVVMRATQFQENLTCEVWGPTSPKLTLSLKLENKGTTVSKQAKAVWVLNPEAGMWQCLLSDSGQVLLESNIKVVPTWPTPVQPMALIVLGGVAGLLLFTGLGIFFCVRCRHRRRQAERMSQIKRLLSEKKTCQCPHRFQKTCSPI

Molecule	activity against R5/X4 HIV-2 ROD in TZM-bl cells [1]	IC50 X4 HIV-1 NL4.3 in TZM-bl cells (X4 HIV-1 NL4.3 WT)	IC50 dual-tropic R5/X4 HIV-1 HE in PBMCs [2]	activity against R5/X4 HIV-1 HE in TZM-bl cells [3]	IC50 (R5 DJ259)	IC50 (R5 SM145)	IC50 (R5 HIV-1 BaL virus)	IC50 of blocking CXCL12AF647 binding to CXCR4 (CXCR4 [4])	IC50 of CXCL-12-induced Ca2+-signaling inhibition (CXCR4 [5])	binding to cynomolgus CD4 (cynomolgus CD4)	binding to CD4 expressed on a cell surface (CD4 [6])	Inhibition of SDF-1a-mediated chemotaxis IC50 MOLM-13 cells (CXCR4 [7])	blocking of in vitro interaction of CD4 with gp120 [8]	binding to cytotoxic CD8+ T cells (CD4 [9])	IC50 (HUT-78/HIV-1 NL4.3)	IC50 HIV-1 NL4.3 in PBMC (HIV-1 X4 NL4.3 strain)
maraviroc [AMD14031]	did not block	did not block	never showed any significant anti-HIV-1 HE activity	did not block	7.54 µM	2.82 µM	4.2 µM									
B1			not active					did not interfere	no CXCL-12-induced Ca^2+-signaling inhibition	cross-reactive to cynomolgus CD4	highest binding signal on THP-1 cells	did not have any effect on SDF-1 function	block	No binding	2.7 µM	weakly active
